One may read the Kd as the concentration at which binding is half-saturated.

Among the data in PMC4117790, “HRAS is silenced by two neighboring G-quadruplexes and activated by MAZ, a zinc-finger transcription factor with DNA unfolding property” are Kd values, retold here.

In data set [1] the target is T1, MAZ-GST (UniProt P56270 1-477).
T1 sequence: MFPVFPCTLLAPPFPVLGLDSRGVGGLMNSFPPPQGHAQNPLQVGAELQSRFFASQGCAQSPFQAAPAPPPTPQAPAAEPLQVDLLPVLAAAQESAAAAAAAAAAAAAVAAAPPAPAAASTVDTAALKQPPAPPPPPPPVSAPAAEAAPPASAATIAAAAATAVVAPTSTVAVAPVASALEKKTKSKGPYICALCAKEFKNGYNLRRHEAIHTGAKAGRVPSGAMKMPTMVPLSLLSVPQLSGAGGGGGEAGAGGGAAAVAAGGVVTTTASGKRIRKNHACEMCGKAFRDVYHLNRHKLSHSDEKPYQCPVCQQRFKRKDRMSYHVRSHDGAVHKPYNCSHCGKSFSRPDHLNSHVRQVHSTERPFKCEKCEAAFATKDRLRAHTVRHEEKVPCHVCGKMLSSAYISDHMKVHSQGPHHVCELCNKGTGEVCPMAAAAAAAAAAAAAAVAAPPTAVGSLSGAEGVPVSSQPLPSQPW
The data set is described as follows: double-filter binding; 100 mM KCl, 50 uM Zn acetate; Hill n = 1.6 ± 0.3; EMSA/filter: 20 mM Tris-HCl pH 8, 8% glycerol, 100 uM MgCl2, 50 uM Zn acetate, 1 mM DTT, 2.5 ng/ul poly dIdC, 1 mM Na3VO4, 5 mM NaF, KCl as stated (100 mM for filter binding); EMSA gel 20 C, filter 4 C 30 min; FRET: 50 mM Tris-HCl pH 7.4, 50 uM Zn acetate, 50 mM KCl, 37 C. The conditions noted are these: protein: recombinant; tags: GST; label: 32P; antiparallel intramolecular G4. (In general: In EMSA bound probe runs differently from free probe, usually more slowly.)

Data set [2] deals with T1, MAZ-GST. Kind of data set: double-filter binding; 100 mM KCl, 50 uM Zn acetate; Hill n = 1.4 ± 0.2; EMSA/filter: 20 mM Tris-HCl pH 8, 8% glycerol, 100 uM MgCl2, 50 uM Zn acetate, 1 mM DTT, 2.5 ng/ul poly dIdC, 1 mM Na3VO4, 5 mM NaF, KCl as stated (100 mM for filter binding); EMSA gel 20 C, filter 4 C 30 min; FRET: 50 mM Tris-HCl pH 7.4, 50 uM Zn acetate, 50 mM KCl, 37 C. The conditions noted are these: protein: recombinant; tags: GST; label: 32P; parallel intramolecular G4.

On to TCGGGTTGCGGGCGCAGGGCACGGGCG (structured_DNA) [hras-1 quadruplex], for which the Kd in the data set with MAZ-GST [1] came out at 504 ± 84 nM. For CGGGGCGGGGCGGGGGCGGGGGCG (structured_DNA) [hras-2 quadruplex], the dissociation constant (Kd) with MAZ-GST [2] was found to be 207 ± 12 nM.
